Results on two molecules are retold here after PMC10698284, “SLC3A2 N-glycosylation and Golgi remodeling regulate SLC7A amino acid exchangers and stress mitigation” (The Journal of Biological Chemistry, 2023).

One experiment has as its target T1, FLAG-SLC3A2 N381D (human, UniProt P08195-1 66-630, N381D, N-glycosylated; N-glycosylation site N381 deleted).
T1 construct: SLC3A2 (4F2hc, CD98), human, cDNA encoding amino acids 66 to 630 of isoform P08195-1, with N381D; also called N381D site variant; source: HeLa Flp-In T-REx SLC3A2 KO cells, dox-induced from the Flp-In site; in lysate (AP-MS) or on the cell surface, then lysed (Gal3 co-IP); not shown: FLAG, N-terminal, kept
T1 sequence (looked up): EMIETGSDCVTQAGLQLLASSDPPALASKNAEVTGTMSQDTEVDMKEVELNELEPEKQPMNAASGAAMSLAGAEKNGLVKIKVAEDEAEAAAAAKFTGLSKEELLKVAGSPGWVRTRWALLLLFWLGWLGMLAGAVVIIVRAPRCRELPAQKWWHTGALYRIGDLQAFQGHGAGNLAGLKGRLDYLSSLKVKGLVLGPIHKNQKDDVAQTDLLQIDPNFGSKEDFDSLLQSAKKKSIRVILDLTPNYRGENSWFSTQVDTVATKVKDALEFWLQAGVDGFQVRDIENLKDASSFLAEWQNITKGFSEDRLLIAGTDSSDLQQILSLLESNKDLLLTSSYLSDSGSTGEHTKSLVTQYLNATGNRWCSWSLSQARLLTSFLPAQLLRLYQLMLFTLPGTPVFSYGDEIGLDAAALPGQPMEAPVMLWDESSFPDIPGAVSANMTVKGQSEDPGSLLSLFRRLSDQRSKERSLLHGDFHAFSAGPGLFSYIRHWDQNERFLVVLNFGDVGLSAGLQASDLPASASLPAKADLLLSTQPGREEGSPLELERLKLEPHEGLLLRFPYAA
Put plainly: affinity purification with mass spectrometry; anti-FLAG M2 agarose, 4 h at 4 °C, 1 mg lysate (0.5% NP40, 50 mM HEPES pH 8.0, 100 mM KCl, 1 mM EDTA, 10% glycerol) of HeLa Flp-In T-REx SLC3A2 KO cells with dox-induced FLAG-SLC3A2 WTseq or site variants; on-bead trypsin digest, DDA and SWATH; control: dox-treated SLC3A2 KO cells; in some samples 10 μM fluvastatin or 250 ng/ml swainsonine for the final 24 h. The conditions noted are these: partners not purified.

For a further experiment, the target named is T2, FLAG-SLC3A2 N365D (human, UniProt P08195-1 66-630, N365D, N-glycosylated; N-glycosylation site N365 deleted).
T2 construct: SLC3A2 (4F2hc, CD98), human, cDNA encoding amino acids 66 to 630 of isoform P08195-1, with N365D; also called N365D site variant; source: HeLa Flp-In T-REx SLC3A2 KO cells, dox-induced from the Flp-In site; in lysate (AP-MS) or on the cell surface, then lysed (Gal3 co-IP); not shown: FLAG, N-terminal, kept
T2 sequence (looked up): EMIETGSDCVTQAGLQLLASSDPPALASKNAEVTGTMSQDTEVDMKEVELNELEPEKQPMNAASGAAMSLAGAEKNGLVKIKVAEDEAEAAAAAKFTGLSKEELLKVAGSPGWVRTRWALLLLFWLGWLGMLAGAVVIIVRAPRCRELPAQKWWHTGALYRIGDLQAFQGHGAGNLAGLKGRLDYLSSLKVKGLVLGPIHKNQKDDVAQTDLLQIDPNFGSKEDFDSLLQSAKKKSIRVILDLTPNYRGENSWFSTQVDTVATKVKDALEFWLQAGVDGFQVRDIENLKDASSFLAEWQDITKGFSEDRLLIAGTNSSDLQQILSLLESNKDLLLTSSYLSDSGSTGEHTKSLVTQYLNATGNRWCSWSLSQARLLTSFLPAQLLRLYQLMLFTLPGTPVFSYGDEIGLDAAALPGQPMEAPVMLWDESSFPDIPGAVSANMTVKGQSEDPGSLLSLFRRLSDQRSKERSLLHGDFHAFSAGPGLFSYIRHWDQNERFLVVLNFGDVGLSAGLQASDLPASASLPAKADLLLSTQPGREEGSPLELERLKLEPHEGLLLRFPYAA
The description is as above. The note with it: partners not purified.

B1: SLC7A5 (natural protein)
chain: not shown
notes: SLC7A5, human, endogenous in HeLa cells, found by its tryptic peptides; Forms a disulfide-linked heterodimer with SLC3A2; also called SLC7A5 exchanger; source: endogenous, HeLa lysate
As for B1, the “percent decrease of the interaction against WTseq” value with FLAG-SLC3A2 N381D and with FLAG-SLC3A2 N365D was 44 ± 14% throughout.

B2: SLC7A11 (natural protein, human (endogenous in HeLa), UniProt Q9UPY5 1-501, looked up)
chain: MVRKPVVSTISKGGYLQGNVNGRLPSLGNKEPPGQEKVQLKRKVTLLRGVSIIIGTIIGAGIFISPKGVLQNTGSVGMSLTIWTVCGVLSLFGALSYAELGTTIKKSGGHYTYILEVFGPLPAFVRVWVELLIIRPAATAVISLAFGRYILEPFFIQCEIPELAIKLITAVGITVVMVLNSMSVSWSARIQIFLTFCKLTAILIIIVPGVMQLIKGQTQNFKDAFSGRDSSITRLPLAFYYGMYAYAGWFYLNFVTEEVENPEKTIPLAICISMAIVTIGYVLTNVAYFTTINAEELLLSNAVAVTFSERLLGNFSLAVPIFVALSCFGSMNGGVFAVSRLFYVASREGHLPEILSMIHVRKHTPLPAVIVLHPLTMIMLFSGDLDSLLNFLSFARWLFIGLAVAGLIYLRYKCPDMHRPFKVPLFIPALFSFTCLFMVALSLYSDPFSTGIGFVITLTGVPAYYLFIIWDKKPRWFRIMSEKITRTLQIILEVVPEEDKL
notes: SLC7A11, human, endogenous in HeLa cells, found by its tryptic peptides; Forms a disulfide-linked heterodimer with SLC3A2; source: endogenous, HeLa lysate
Consider B2, for which the “percent decrease of the interaction against WTseq” value in the experiment with FLAG-SLC3A2 N381D and with FLAG-SLC3A2 N365D was 67 ± 15% each time.
